The values below are quoted from earlier work in PMC10136230.

In the data set the target is AGE-albumin (UniProt P02768). The data set is described as follows: 125I-labeled ligand binding.

One may read the Kd as the concentration at which binding is half-saturated. RAGE (from UniProt Q15109): the Kd is 0.2 µM.
